The target of the assay is Biotinylated SARS-CoV-2 (COVID-19) S protein RBD, His, Avitag (bRBD) (SARS-CoV-2, UniProt P0DTC2, biotinylated). The assay can be described thus: flow cytometry on cells.

B1: C119 (IgG) (antibody, V domains shown)
VH: QVQLVQSGAEVKKPGASVKVSCKASGYTFTSYYMHWVRQAPGQGLEWMGIINPSGGSTSYAQKLQGRVTMTRDTSTSTVYMELSSLRSEDTAVYYCARANHETTMDTYYYYYYMDVWGKGTTVTVSS
VL: QSALTQPASVSGSPGQSITISCTGTSSDVGGYKYVSWYQRHPGKAPKLMIYDVSNRPSGVSNRFSGSKSGNTASLTISGLQAEDEADYYCSSYTSSSTSVVFGGGTQLTVL
Take B1: the binding result is reported as “binds”.

(Values after PMC8223476 (2021).)
